# Target: GST-Shp2 SH2 T73D/S189D
# Assay: pull-down; glutathione-Sepharose bead-bound bacterial GST-Shp2 SH2 proteins incubated with lysates of HEK293T cells transfected with the ligand and constitutively active Src; 1 h at 4 °C; bound proteins immunoblotted for phosphotyrosine (4G10) and GST; band intensities quantified with ImageJ
row,fold reduction of binding against the wild-type SH2 domains,Substance
1,5.7 fold,"Venus-GAB1, tyrosine-phosphorylated (from UniProt Q13480 1-694) (natural protein)"
2,2.7 fold,"Venus-GAB2, tyrosine-phosphorylated (from UniProt Q9UQC2 1-676) (natural protein)"
3,1.7 fold,"GFP-PKD1, tyrosine-phosphorylated (from UniProt Q15139 1-912) (enzyme)"
